The supplement of paper PMC10567573

B1: CDKL4 (parent)
chain: AVKKFVESEDDPVVKKIALREIRM
B2: ZBED1 (parent)
chain: EQVFSLGDGVSGGFFGIRDSSFL

Variants of: B1
Assay: protein stability index of a GFP-peptide fusion (GPS, HEK-293T) (PSI 1-6); higher = more stable
Conditions: c terminus: a fixed tail appended
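Also: lentivirally expressed fusions sorted by FACS into six bins by GFP to DsRed ratio, PSI derived from sequencing read proportions per bin multiplied by bin number.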

First: LVKKFVESEDDPVVKKIALREIRM [A1L]
Second: HVKKFVESEDDPVVKKIALREIRM [A1H]
The protein stability index of the first is lower: 1.99 for the first, 2.59 for the second.

Compared with GVKKFVESEDDPVVKKIALREIRM [A1G], FVKKFVESEDDPVVKKIALREIRM [A1F] is lower in protein stability index: 3.63 for the first, 2.21 for the second.

Compared with MVKKFVESEDDPVVKKIALREIRM [A1M], KVKKFVESEDDPVVKKIALREIRM [A1K] is higher in protein stability index: 2.69 for the first, 2.91 for the second.

Going from EVKKFVESEDDPVVKKIALREIRM [A1E] to CVKKFVESEDDPVVKKIALREIRM [A1C], the protein stability index falls from 3.85 to 2.48.

Compared with DVKKFVESEDDPVVKKIALREIRM [A1D], IVKKFVESEDDPVVKKIALREIRM [A1I] is lower in protein stability index: 3.75 for the first, 2.16 for the second.

Variants of: B2
Assay: as above
Conditions: c terminus: native

First: EQVFSLGDGVSGGFFGIRDSVFL [S21V]
Second: EQVFSLGDGVSGGFFGIRDSLFL [S21L]
The protein stability index of the first is lower: 1.74 for the first, 2.5 for the second.

First: EQVFSLGDGVSGGFFGIRDSFFL [S21F]
Second: EQVFSLGDGVSGGFFGIRDSNFL [S21N]
The protein stability index of the first is lower: 2.61 for the first, 3.62 for the second.

Going from EQVFSLGDGVSGGFFGIRDSKFL [S21K] to EQVFSLGDGVSGGFFGIRDSEFL [S21E], the protein stability index falls from 4.02 to 3.67.

Going from EQVFSLGDGVSGGFFGIRDSDFL [S21D] to EQVFSLGDGVSGGFFGIRDSHFL [S21H], the protein stability index falls from 4.08 to 3.46.

First: EQVFSLGDGVSGGFFGIRDSGFL [S21G]
Second: EQVFSLGDGVSGGFFGIRDSYFL [S21Y]
The protein stability index of the first is higher: 3.84 for the first, 2.66 for the second.

Going from EQVFSLGDGVSGGFFGIRDSIFL [S21I] to EQVFSLGDGVSGGFFGIRDSCFL [S21C], the protein stability index rises from 2.25 to 2.77.

Going from EQVFSLGDGVSGGFFGIRDSTFL [S21T] to EQVFSLGDGVSGGFFGIRDSAFL [S21A], the protein stability index falls from 3.33 to 3.

Compared with EQVFSLGDGVSGGFFGIRDSQFL [S21Q], EQVFSLGDGVSGGFFGIRDSRFL [S21R] is higher in protein stability index: 3.48 for the first, 3.61 for the second.

Going from EQVFSLGDGVSGGFFGIRDSMFL [S21M] to EQVFSLGDGVSGGFFGIRDSWFL [S21W], the protein stability index rises from 2.54 to 2.59.

Going from EQVFSLGDGVSGGFFGIRDSPFL [S21P] to EQVFSLGDGVSGGFFGIRDSSFP [L23P], the protein stability index rises from 3.4 to 3.92.

Compared with EQVFSLGDGVSGGFFGIRDSSFY [L23Y], EQVFSLGDGVSGGFFGIRDSSFR [L23R] is higher in protein stability index: 2.61 for the first, 3.35 for the second.

Going from EQVFSLGDGVSGGFFGIRDSSFN [L23N] to EQVFSLGDGVSGGFFGIRDSSFQ [L23Q], the protein stability index rises from 3.94 to 3.98.

Compared with EQVFSLGDGVSGGFFGIRDSSFC [L23C], EQVFSLGDGVSGGFFGIRDSSFS [L23S] is lower in protein stability index: 3.34 for the first, 3.25 for the second.

Going from EQVFSLGDGVSGGFFGIRDSSFM [L23M] to EQVFSLGDGVSGGFFGIRDSSFT [L23T], the protein stability index falls from 3.67 to 3.33.

First: EQVFSLGDGVSGGFFGIRDSSFF [L23F]
Second: EQVFSLGDGVSGGFFGIRDSSFH [L23H]
The protein stability index of the first is lower: 2.63 for the first, 3.9 for the second.

Compared with EQVFSLGDGVSGGFFGIRDSSFK [L23K], EQVFSLGDGVSGGFFGIRDSSFW [L23W] is lower in protein stability index: 4.35 for the first, 2.66 for the second.

Compared with EQVFSLGDGVSGGFFGIRDSSFE [L23E], EQVFSLGDGVSGGFFGIRDSSFA [L23A] is lower in protein stability index: 4.54 for the first, 2.42 for the second.

Compared with EQVFSLGDGVSGGFFGIRDSSFI [L23I], EQVFSLGDGVSGGFFGIRDSSFG [L23G] is lower in protein stability index: 2.99 for the first, 1.56 for the second.

Going from EQVFSLGDGVSGGFFGIRDSSFV [L23V] to EQVFSLGDGVSGGFFGIRDSSFD [L23D], the protein stability index rises from 3.19 to 3.96.

Compared with EQVFSLGDGVSGGFFGIRYSSFL [D19Y], EQVFSLGDGVSGGFFGIRMSSFL [D19M] is lower in protein stability index: 2.57 for the first, 1.77 for the second.

Compared with EQVFSLGDGVSGGFFGIRLSSFL [D19L], EQVFSLGDGVSGGFFGIRTSSFL [D19T] is lower in protein stability index: 2.1 for the first, 1.85 for the second.

Going from EQVFSLGDGVSGGFFGIRPSSFL [D19P] to EQVFSLGDGVSGGFFGIRKSSFL [D19K], the protein stability index rises from 2.15 to 3.4.

Compared with EQVFSLGDGVSGGFFGIRRSSFL [D19R], EQVFSLGDGVSGGFFGIRSSSFL [D19S] is lower in protein stability index: 2.78 for the first, 1.68 for the second.

Going from EQVFSLGDGVSGGFFGIRNSSFL [D19N] to EQVFSLGDGVSGGFFGIRVSSFL [D19V], the protein stability index falls from 2.75 to 2.65.

Compared with EQVFSLGDGVSGGFFGIRQSSFL [D19Q], EQVFSLGDGVSGGFFGIRDSSDL [F22D] is higher in protein stability index: 2.15 for the first, 4.06 for the second.

First: EQVFSLGDGVSGGFFGIRDSSEL [F22E]
Second: EQVFSLGDGVSGGFFGIRDSSML [F22M]
The protein stability index of the first is higher: 4.08 for the first, 3.49 for the second.

First: EQVFSLGDGVSGGFFGIRDSSVL [F22V]
Second: EQVFSLGDGVSGGFFGIRDSSLL [F22L]
The protein stability index of the first is lower: 3.35 for the first, 3.41 for the second.

First: EQVFSLGDGVSGGFFGIRDSSWL [F22W]
Second: EQVFSLGDGVSGGFFGIRDSSPL [F22P]
The protein stability index of the first is higher: 3.73 for the first, 3.43 for the second.

Compared with EQVFSLGDGVSGGFFGIRDSSCL [F22C], EQVFSLGDGVSGGFFGIRDSSTL [F22T] is higher in protein stability index: 3.39 for the first, 4.07 for the second.

Compared with EQVFSLGDGVSGGFFGIRDSSYL [F22Y], EQVFSLGDGVSGGFFGIRDSSSL [F22S] is higher in protein stability index: 3.33 for the first, 3.79 for the second.

First: EQVFSLGDGVSGGFFGIRDSSNL [F22N]
Second: EQVFSLGDGVSGGFFGIRDSSRL [F22R]
The protein stability index of the first is higher: 4.22 for the first, 3.61 for the second.

Going from EQVFSLGDGVSGGFFGIRDSSIL [F22I] to EQVFSLGDGVSGGFFGIRDSSKL [F22K], the protein stability index falls from 3.04 to 2.39.

Compared with EQVFSLGDGVSGGFFGIRDSSQL [F22Q], EQVFSLGDGVSGGFFGIRDSSHL [F22H] is higher in protein stability index: 4.24 for the first, 4.5 for the second.

Going from EQVFSLGDGVSGGFFGIRDSSGL [F22G] to EQVFSLGDGVSGGFFGIRDSSAL [F22A], the protein stability index rises from 4.14 to 4.15.

Going from EQVFSLGDGVSGGFFGIRDHSFL [S20H] to EQVFSLGDGVSGGFFGIRDASFL [S20A], the protein stability index rises from 2.76 to 3.1.

First: EQVFSLGDGVSGGFFGIRDMSFL [S20M]
Second: EQVFSLGDGVSGGFFGIRDCSFL [S20C]
The protein stability index of the first is higher: 2.49 for the first, 1.96 for the second.

First: EQVFSLGDGVSGGFFGIRDWSFL [S20W]
Second: EQVFSLGDGVSGGFFGIRDVSFL [S20V]
The protein stability index of the first is lower: 2.35 for the first, 2.63 for the second.

First: EQVFSLGDGVSGGFFGIRDLSFL [S20L]
Second: EQVFSLGDGVSGGFFGIRDRSFL [S20R]
The protein stability index of the first is lower: 2.5 for the first, 3.21 for the second.

First: EQVFSLGDGVSGGFFGIRDKSFL [S20K]
Second: EQVFSLGDGVSGGFFGIRDTSFL [S20T]
The protein stability index of the first is higher: 3.53 for the first, 3.22 for the second.

First: EQVFSLGDGVSGGFFGIRDYSFL [S20Y]
Second: EQVFSLGDGVSGGFFGIRDGSFL [S20G]
The protein stability index of the first is lower: 2.96 for the first, 3.22 for the second.

First: EQVFSLGDGVSGGFFGIRDISFL [S20I]
Second: EQVFSLGDGVSGGFFGIRDFSFL [S20F]
The protein stability index of the first is higher: 2.42 for the first, 2.39 for the second.

Going from EQVFSLGDGVSGGFFGIRDQSFL [S20Q] to EQVFSLGDGVSGGFFGIRDESFL [S20E], the protein stability index rises from 3.7 to 3.91.

Going from EQVFSLGDGVSGGFFGIRDNSFL [S20N] to EQVFSLGDGVSGGFFGIRDDSFL [S20D], the protein stability index rises from 3.7 to 3.71.

With EQVFSLGDGVSGGFFGIRDPSFL [S20P] the protein stability index was 3.73.
